In publication PMC9942304, “Identification of RimR2 as a positive pathway-specific regulator of rimocidin biosynthesis in Streptomyces rimosus M527”:

Tests used:
RimR2 [1] = target: T1, RimR2 (Streptomyces rimosus M527, UniProt A0ABY3YSD1 1-918); experiment: EMSA; LightShift Chemiluminescent EMSA Kit (Thermo); 0.04 pmol/ul biotin probe, 10 ug RimR2; buffer, salt, pH and temperature not stated; conditions: protein: recombinant; tags: His6 (pET32a, EcoRV/BamHI); blunt
T1 sequence: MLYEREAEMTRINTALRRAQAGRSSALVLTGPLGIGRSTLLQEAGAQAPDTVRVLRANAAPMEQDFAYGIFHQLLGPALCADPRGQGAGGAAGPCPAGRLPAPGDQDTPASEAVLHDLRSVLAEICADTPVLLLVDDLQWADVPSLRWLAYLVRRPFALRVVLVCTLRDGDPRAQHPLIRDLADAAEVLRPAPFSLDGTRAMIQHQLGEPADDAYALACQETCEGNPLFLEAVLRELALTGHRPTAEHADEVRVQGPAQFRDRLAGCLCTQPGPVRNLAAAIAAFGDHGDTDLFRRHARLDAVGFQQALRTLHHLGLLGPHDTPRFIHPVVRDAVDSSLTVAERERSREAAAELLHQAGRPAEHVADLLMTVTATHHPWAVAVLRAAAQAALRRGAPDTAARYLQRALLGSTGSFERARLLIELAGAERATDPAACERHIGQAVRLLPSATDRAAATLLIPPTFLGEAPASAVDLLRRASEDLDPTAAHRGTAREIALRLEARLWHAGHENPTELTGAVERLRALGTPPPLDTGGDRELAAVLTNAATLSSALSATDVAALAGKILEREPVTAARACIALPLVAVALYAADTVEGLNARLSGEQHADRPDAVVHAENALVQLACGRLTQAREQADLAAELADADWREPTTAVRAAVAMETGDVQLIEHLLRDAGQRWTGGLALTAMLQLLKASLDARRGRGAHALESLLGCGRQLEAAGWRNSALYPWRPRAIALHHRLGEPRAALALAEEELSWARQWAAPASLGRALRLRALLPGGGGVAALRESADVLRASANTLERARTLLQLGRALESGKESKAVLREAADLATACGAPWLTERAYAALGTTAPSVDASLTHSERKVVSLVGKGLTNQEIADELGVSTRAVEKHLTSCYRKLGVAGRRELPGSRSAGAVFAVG

RimR2 [2] = target: T1, RimR2; experiment: EMSA; competed by 100-fold unlabeled probe; LightShift Chemiluminescent EMSA Kit (Thermo); 0.04 pmol/ul biotin probe, 10 ug RimR2; buffer, salt, pH and temperature not stated; conditions: protein: recombinant; tags: His6 (pET32a, EcoRV/BamHI); blunt

B1: rimR2 promoter probe (dsDNA)
DNA 1: TACCTACAAGAAATTGCGTATCACCTCACGCAAGGAACTCCGCGCGCGGA
DNA 2: TCCGCGCGCGGAGTTCCTTGCGTGAGGTGATACGCAATTTCTTGTAGGTA
RimR2 [1]
  binding result: binds

B2: rimA promoter probe (dsDNA)
DNA 1: ATCACCGTGCACGAGGGCTGACGCCCGCCCGGGCAGGAGCTCGTGTCCGA
DNA 2: TCGGACACGAGCTCCTGCCCGGGCGGGCGTCAGCCCTCGTGCACGGTGAT
RimR2 [2]
  binding result: binds

B3: rimC promoter probe (dsDNA)
DNA 1: CCCCATCCTGATCACAAAAGACTAAGGGAAATGTTAAAGGTACGGTGTGC
DNA 2: GCACACCGTACCTTTAACATTTCCCTTAGTCTTTTGTGATCAGGATGGGG
RimR2 [2]
  binding result: binds
